Laboratory results from the supplement of paper PMC5998384.

Assays:
[1] = system: HeLa Kyoto; experiment: solubility change mitosis vs G1/S (difference of NP-40 vs SDS log2 ratios) (log2 ratio difference); higher = more soluble in mitosis
[2] = system: HeLa Kyoto; experiment: solubility in G1/S (NP-40 vs SDS abundance) (log2 ratio); higher = more soluble; details: cell cycle stage: G1/S
[3] = system: HeLa Kyoto; experiment: thermal stability score vs G1/S (z-score of summed log2 fold changes over temperatures); higher = more thermally stable than in G1/S
[4] = system: HeLa Kyoto; experiment: melting temperature (median over replicates), in situ; higher = more thermally stable
[5] = cell cycle stage: early G1 (4.5 h after nocodazole release)
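For melting temperature (median over replicates), in situ in this document: HeLa Kyoto cells synchronized by double thymidine or nocodazole block, proteins quantified by TMT10plex mass spectrometry, three independent biological replicates.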
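For solubility change mitosis vs G1/S (difference of NP-40 vs SDS log2 ratios) in this document: synchronized HeLa Kyoto cells (double thymidine block for G1/S, nocodazole release for mitosis), protein amounts in NP-40 versus SDS lysates quantified by mass spectrometry, three biological replicates.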
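For solubility in G1/S (NP-40 vs SDS abundance) in this document: HeLa Kyoto cells arrested at G1/S by double thymidine block, proteins quantified by TMT10plex mass spectrometry in mild NP-40 versus SDS extracts, three biological replicates.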
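For thermal stability score vs G1/S (z-score of summed log2 fold changes over temperatures) in this document: synchronized HeLa Kyoto cells, proteins quantified by TMT10plex mass spectrometry, three biological replicates, mitosis taken 0.5 h after nocodazole release, G1/S directly after double thymidine block.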

| Sequence | solubility change mitosis (log2) [1] | solubility in G1/S (log2) [2] | thermal stability score [3, 5] | thermal stability score ([3]; cell cycle stage: mitosis) | melting temperature ([4]; cell cycle stage: G1/S) [°C] | melting temperature ([4]; cell cycle stage: mitosis) [°C] |
| --- | --- | --- | --- | --- | --- | --- |
| MEAVKTFNSELYSLNDYKPPISKAKMTQITKAAIKAIKFYKHVVQSVEKFIQKCKPEYKVPGLYVIDSIVRQSRHQFGQEKDVFAPRFSNNIISTFQNLYRCPGDDKSKIVRVLNLWQKNNVFKSEIIQPLLDMAAGIPPPVVTPVLASTTTAMSNTPGTPVTPVTPANVVQGLPDPWVSQITNTDTLAAVAQILQSPQGQQLQQLIQTLQIQQQKPQPSILQALDAGLVVQLQALTAQLTAAAAAANTLTPLEQGVSFNKKLMDRFDFGEDSEHSEEPKKEIPASQLSHVSESVNNSIFHQIAEQLQQQNLEHLRQQLLEQQQPQKATPQDSQEGTFGSEHSASPSQGSSQQHFLEPEVNLDDSIDIQQQDMDIDEGQDGVEEEVFEQEAKKVAVRSRSRTHSRSRSRSPRKRRSRSRSGSRKRKHRKRSRSRSRERKRKSSRSYSSERRAREREKERQKKGLPPIRSKTLSVCSTTLWVGQVDKKATQQDLTNLFEEFGQIESINMIPPRGCAYVCMVHRQDAFRALQKLSSGSYKIGSKVIKIAWALNKGVKTEYKQFWDVDLGVTYIPWEKVKVDDLEGFAEGGMIDQETVNTEWETVKSSEPVKETVQTTQSPTPVEKETVVTTQAEVFPPPVAMLQIPVAPAVPTVSLVPPAFPVSMPVPPPGFSPIPPPPFLRASFNPSQPPPGFMPPPVPPPVVPPPTIPPVVPTSLVQPSLSMTPETVKDVGFGSLVIPGGSVASNLATSALPAGNVFNAPTKQAEPEEKVPHLIDHQISSGENTRSVIPNDISSNAAILGGQPPNVTSNSGILGVQRPNVSSNSEILGVRPSNVSSSSGIIAAQPPNILNNSGILGIQPPSVSNSSGLLGVLPPNIPNNSGLVGVQPPNVPNTPGLLGTQPPAGPQNLPPLSIPNQRMPTMPMLDIRPGLIPQAPGPRFPLIQPGIPPQRGIPPPSVLDSALHPPPRGPFPPGDIFSQPERPFLAPGRQSVDNVTNPEKRIPLGNDNIQQEGDRDYRFPPIETRESISRPPPVDVRDVVGRPIDPREGPGRPPLDGRDHFGRPPVDIRENLVRPGIDHLGRRDHFGFNPEKPWGHRGDFDEREHRVLPVYGGPKGLHEERGRFRSGNYRFDPRSGPWNRGFGQEVHRDFDDRRRPWERQRDRDDRDFDFCREMNGNRLGRDRIQNTWVPPPHARVFDYFEGATSQRKGDNVPQVNGENTERHAQPPPIPVQNDPELYEKLTSSNEINKEKSDTVADIESEPVVESTETEGT [SCAF8] | -0.0284 | -0.11 | 0.536 | 0.448 | 48.6 | 49.3 |
| MEDDAPVIYGLEFQARALTPQTAETDAIRFLVGTQSLKYDNQIHIIDFDDENNIINKNVLLHQAGEIWHISASPADRGVLTTCYNRTSDSKVLTCAAVWRMPKELESGSHESPDDSSSTAQTLELLCHLDNTAHGNMACVVWEPMGDGKKIISLADNHILLWDLQESSSQAVLASSASLEGKGQLKFTSGRWSPHHNCTQVATANDTTLRGWDTRSMSQIYCIENAHGQLVRDLDFNPNKQYYLASCGDDCKVKFWDTRNVTEPVKTLEEHSHWVWNVRYNHSHDQLVLTGSSDSRVILSNMVSISSEPFGHLVDDDDISDQEDHRSEEKSKEPLQDNVIATYEEHEDSVYAVDWSSADPWLFASLSYDGRLVINRVPRALKYHILL [TSSC1] | -0.21 | 0.0334 | -0.291 | -0.357 | 51.9 | 52.9 |
| MEDGKPVWAPHPTDGFQMGNIVDIGPDSLTIEPLNQKGKTFLALINQVFPAEEDSKKDVEDNCSLMYLNEATLLHNIKVRYSKDRIYTYVANILIAVNPYFDIPKIYSSEAIKSYQGKSLGTRPPHVFAIADKAFRDMKVLKMSQSIIVSGESGAGKTENTKFVLRYLTESYGTGQDIDDRIVEANPLLEAFGNAKTVRNNNSSRFGKFVEIHFNEKSSVVGGFVSHYLLEKSRICVQGKEERNYHIFYRLCAGASEDIREKLHLSSPDNFRYLNRGCTRYFANKETDKQILQNRKSPEYLKAGSMKDPLLDDHGDFIRMCTAMKKIGLDDEEKLDLFRVVAGVLHLGNIDFEEAGSTSGGCNLKNKSAQSLEYCAELLGLDQDDLRVSLTTRVMLTTAGGTKGTVIKVPLKVEQANNARDALAKTVYSHLFDHVVNRVNQCFPFETSSYFIGVLDIAGFEYFEHNSFEQFCINYCNEKLQQFFNERILKEEQELYQKEGLGVNEVHYVDNQDCIDLIEAKLVGILDILDEENRLPQPSDQHFTSAVHQKHKDHFRLTIPRKSKLAVHRNIRDDEGFIIRHFAGAVCYETTQFVEKNNDALHMSLESLICESRDKFIRELFESSTNNNKDTKQKAGKLSFISVGNKFKTQLNLLLDKLRSTGASFIRCIKPNLKMTSHHFEGAQILSQLQCSGMVSVLDLMQGGYPSRASFHELYNMYKKYMPDKLARLDPRLFCKALFKALGLNENDYKFGLTKVFFRPGKFAEFDQIMKSDPDHLAELVKRVNHWLTCSRWKKVQWCSLSVIKLKNKIKYRAEACIKMQKTIRMWLCKRRHKPRIDGLVKVGTLKKRLDKFNEVVSVLKDGKPEMNKQIKNLEISIDTLMAKIKSTMMTQEQIQKEYDALVKSSEELLSALQKKKQQEEEAERLRRIQEEMEKERKRREEDEKRRRKEEEERRMKLEMEAKRKQEEEERKKREDDEKRIQAEVEAQLARQKEEESQQQAVLEQERRDRELALRIAQSEAELISDEAQADLALRRSLDSYPVSKNDGTRPKMTPEQMAKEMSEFLSRGPAVLATKAAAGTKKYDLSKWKYAELRDTINTSCDIELLAACREEFHRRLKVYHAWKSKNKKRNTETEQRAPKSVTDYDFAPFLNNSPQQNPAAQIPARQREIEMNRQQRFFRIPFIRPADQYKDPQSKKKGWWYAHFDGPWIARQMELHPDKPPILLVAGKDDMEMCELNLEETGLTRKRGAEILPRQFEEIWERCGGIQYLQNAIESRQARPTYATAMLQSLLK [MYO6] | -0.164 | -0.238 | -0.962 | -1.32 | 52.1 | 51.5 |
| MEDTPLVISKQKTEVVCGVPTQVVCTAFSSHILVVVTQFGKMGTLVSLEPSSVASDVSKPVLTTKVLLGQDEPLIHVFAKNLVAFVSQEAGNRAVLLAVAVKDKSMEGLKALREVIRVCQVW [PSMG3] | -0.0857 | 0.13 | -1.46 | -2.93 | 57.8 | 56.2 |
